In publication PMC8303963, “Action of Multiple Rice β-Glucosidases on Abscisic Acid Glucose Ester” (International Journal of Molecular Sciences, 2021):

Substrate: CC1=CC(=O)CC(C)(C)[C@@]1(O)/C=C/C(C)=C\C(=O)O[C@@H]1O[C@H](CO)[C@@H](O)[C@H](O)[C@H]1O
Experiment: glucose release by peroxidase/glucose oxidase assay, Michaelis-Menten fit
Type: biochemical, Oryza sativa
Conditions: 50 mM sodium acetate pH 5, 30 °C
Excerpt: glucose release by peroxidase/glucose oxidase assay, Michaelis-Menten fit on Os4BGlu12

B1: Os4BGlu12 (Oryza sativa Japonica Group) (protein)
chain: AYNGAGEPPVSRRSFPKGFIFGTASSSYQYEGGAAEGGRGPSIWDTFTHQHPEKIADRSNGDVASDSYHLYKEDVRLMKDMGMDAYRFSISWTRILPNGSLRGGVNKEGIKYYNNLINELLSKGVQPFITLFHWDSPQALEDKYNGFLSPNIINDFKDYAEICFKEFGDRVKNWITFNEPWTFCSNGYATGLFAPGRCSPWEKGNCSVGDSGREPYTACHHQLLAHAETVRLYKAKYQALQKGKIGITLVSHWFVPFSRSKSNDDAAKRAIDFMFGWFMDPLIRGDYPLSMRGLVGNRLPQFTKEQSKLVKGAFDFIGLNYYTANYADNLPPSNGLNNSYTTDSRANLTGVRNGIPIGPQAASPWLYVYPQGFRDLLLYVKENYGNPTVYITENGVDEFNNKTLPLQEALKDDARIEYYHKHLLSLLSAIRDGANVKGYFAWSLLDNFEWSNGYTVRFGINFVDYNDGRKRYPKNSAHWFKKFLLK
notes: recombinant from E. coli, IMAC purified; N-terminal thioredoxin and His6 tags cut off with enterokinase
  Km: 10.9 ± 0.9 mM
  kcat: 7.5 ± 0.0002 s⁻¹
  kcat/Km: 689 M⁻¹ s⁻¹
